Experiments:
[1] = molecular target: T1, human CD73-His protein (human, UniProt P21589 27-549); experiment: ELISA as in Example 3, antigen CD73-his, antibody titrated, absorbance 450 nm
T1 construct: Expressed in HEK-293F with a signal peptide that is not specified; In the ELISAs it was biotinylated with EZ-Link NHS-Biotin (CD73-biotin) and captured on streptavidin; in SPR and the enzyme assay it was used as CD73-His; also called CD73-his antigen; CD73-biotin
T1 sequence: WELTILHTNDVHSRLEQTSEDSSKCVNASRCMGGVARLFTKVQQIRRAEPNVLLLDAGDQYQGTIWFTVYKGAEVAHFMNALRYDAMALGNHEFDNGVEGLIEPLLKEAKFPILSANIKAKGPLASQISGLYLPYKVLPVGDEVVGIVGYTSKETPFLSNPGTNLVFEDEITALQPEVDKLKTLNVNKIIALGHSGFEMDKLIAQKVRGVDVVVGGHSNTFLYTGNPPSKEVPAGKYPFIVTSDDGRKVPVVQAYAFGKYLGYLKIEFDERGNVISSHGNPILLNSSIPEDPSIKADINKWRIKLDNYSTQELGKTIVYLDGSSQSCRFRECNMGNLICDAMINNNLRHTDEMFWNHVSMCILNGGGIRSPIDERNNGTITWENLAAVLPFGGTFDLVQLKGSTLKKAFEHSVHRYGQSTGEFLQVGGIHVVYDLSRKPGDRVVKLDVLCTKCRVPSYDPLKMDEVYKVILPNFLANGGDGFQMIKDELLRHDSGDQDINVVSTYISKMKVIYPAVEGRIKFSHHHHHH

[2] = molecular target: T2, CD73-ND-his (human, UniProt P21589 27-317); experiment: ELISA, high plateau value (OD 450 nm)
T2 construct: Biotinylated and captured on streptavidin in the ELISA
T2 sequence: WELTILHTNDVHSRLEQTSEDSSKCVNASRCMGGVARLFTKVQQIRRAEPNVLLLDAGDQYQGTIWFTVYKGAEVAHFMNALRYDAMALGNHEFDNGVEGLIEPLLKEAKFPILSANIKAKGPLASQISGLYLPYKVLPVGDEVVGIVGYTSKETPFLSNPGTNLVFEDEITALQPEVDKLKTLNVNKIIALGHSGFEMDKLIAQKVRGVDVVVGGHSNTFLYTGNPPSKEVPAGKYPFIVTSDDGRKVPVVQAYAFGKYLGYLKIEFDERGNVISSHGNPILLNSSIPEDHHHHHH
Procedure: (§1) The ELISA plates were coated with SA protein diluted to 1.5 μg/mL in coating buffer (50 mM carbonate coating buffer, pH 9.6) and incubated overnight at 4° C. The supernatant was discarded, and the plates were washed three times with PBST. Then, 5% skimmed milk powder prepared with PBS was added for blocking and the plates were incubated for 2 h at 37° C. After washing the plates once with PBST, CD73-biotin protein (prepared by biotinylating CD73-His protein according to the EZ-Link NHS-Biotin Reagent instructions) was diluted to 0.5 μg/mL and added at 100 μL/well for incubation at room temperature for 1 h. The plates were washed three times with PBST, and the prepared murine-derived monoclonal antibodies against human CD73 were serially diluted with 1% BSA buffer prepared with PBST and added to the ELISA plates at 100 μl/well. The plates were incubated at 37° C. for 1 h. After washing the plates three times with PBST, HRP-labeled goat anti-mouse IgG secondary antibody was added and the plates were incubated for 30 min at 37° C. After washing the plates three times with PBST, the residual droplets were patted dry on absorbent paper as much as possible. Then, 100 μl of TMB color developing solution was added to each well, and the plates were incubated in the dark at room temperature for 5 min for color development. Subsequently, 50 μl of 2M H₂SO₄ stop solution was added to each well to terminate the substrate reaction. The OD values were read at 450 nm using a multimode microplate reader to analyze the binding ability of the tested antibodies to the target antigen human CD73-His.
(§2) Referring to the experimental method in Example 3, the affinity of 48A11-HuV33 for various mutant proteins of CD73-ND was determined. The SA protein was diluted to 1 μg/mL for coating the ELISA plates, and the biotinylated CD73 protein (CD73-biotin) was used at a concentration of 0.1 μg/mL.

[3] = molecular target: T3, CD73-ND-K136A (human, UniProt P21589 27-317); experiment: ELISA, high plateau value (OD 450 nm)
T3 construct: Alanine mutant of CD73-ND
T3 sequence: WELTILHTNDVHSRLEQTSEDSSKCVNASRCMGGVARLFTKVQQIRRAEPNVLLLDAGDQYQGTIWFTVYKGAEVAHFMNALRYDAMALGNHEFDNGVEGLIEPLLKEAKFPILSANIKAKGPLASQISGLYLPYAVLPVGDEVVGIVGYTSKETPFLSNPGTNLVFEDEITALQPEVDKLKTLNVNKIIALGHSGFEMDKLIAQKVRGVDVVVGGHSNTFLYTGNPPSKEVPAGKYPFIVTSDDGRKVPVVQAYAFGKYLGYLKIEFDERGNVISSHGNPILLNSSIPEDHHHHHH
Procedure: as §1, §2

[4] = molecular target: T4, CD73-ND-K182A (human, UniProt P21589 27-317); experiment: ELISA; decline multiple of EC50 against CD73-ND
T4 construct: Alanine mutant of CD73-ND
T4 sequence: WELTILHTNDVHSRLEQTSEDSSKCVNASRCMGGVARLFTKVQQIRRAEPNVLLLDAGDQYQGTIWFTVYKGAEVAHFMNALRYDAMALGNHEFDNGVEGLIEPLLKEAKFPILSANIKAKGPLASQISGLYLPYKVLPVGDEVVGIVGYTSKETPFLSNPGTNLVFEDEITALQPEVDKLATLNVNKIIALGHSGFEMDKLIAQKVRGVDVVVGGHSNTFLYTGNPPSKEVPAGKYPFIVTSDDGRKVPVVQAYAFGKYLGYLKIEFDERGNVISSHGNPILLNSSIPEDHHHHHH
Procedure: as §1, §2

[5] = molecular target: T5, CD73-ND-T183A (human, UniProt P21589 27-317); experiment: ELISA; decline multiple of EC50 against CD73-ND
T5 construct: Alanine mutant of CD73-ND
T5 sequence: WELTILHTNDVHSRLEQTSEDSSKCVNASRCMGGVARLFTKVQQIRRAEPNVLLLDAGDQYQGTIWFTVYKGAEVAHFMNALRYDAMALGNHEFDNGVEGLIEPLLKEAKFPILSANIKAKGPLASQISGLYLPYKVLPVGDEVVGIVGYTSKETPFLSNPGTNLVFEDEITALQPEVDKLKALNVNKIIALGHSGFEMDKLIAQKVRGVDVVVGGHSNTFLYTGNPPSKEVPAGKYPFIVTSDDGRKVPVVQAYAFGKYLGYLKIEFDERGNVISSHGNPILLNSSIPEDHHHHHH
Procedure: as §1, §2

B1: 48A11-HuV33 (antibody, human IgG4, V domains shown)
VH: QVQLVQSGAEVKKPGASVKVSCKASGYTFTSYWMHWVRQAPGQGLEWIGEINPSIGRTNYNEKFKSRVTLTRDTSTSTAYMELSSLRSEDTAVYYCARRVYGTMDYWGQGTLVTVSS
VL: DIQMTQSPSSLSASVGDRVTITCKASQDINSYLSWFQQKPGKSPKLLIYRANIWVDGVPSRFSGSGSGQDYTFTISSLQPEDIATYYCLQYDELYTFGQGTKVEIK
notes: Humanized
[1]
  EC50 (read off the curve): ~40 pM
[2]
  Top: 2.08
[3]
  Top: 2.12
[4]
  Ratio(EC50): 1 fold
[5]
  Ratio(EC50): 1.4 fold
